Laboratory results taken from paper PMC11154707, “Polymer-based antibody mimetics (iBodies) target human PD-L1 and function as a potent immune checkpoint blocker” (The Journal of Biological Chemistry, 2024).

Legend:
[1] = molecular target: T1, PD-1/PD-L1 engagement (hPD-L1-overexpressing Raji B cells, hPD-1-overexpressing Jurkat T cells) (Homo sapiens, UniProt Q9NZQ7); experiment: IL-2 production in PD-L1 Raji B / PD-1 Jurkat T cell co-culture with SEE; type: cell-based; conditions: 25 pg/ml SEE, 24 h co-culture, IL-2 ELISA of supernatants; read-out: EC50 of restored T cell activation (IL-2)
T1 construct: expressed in transfected cells; host or cells: Raji B cells (PD-L1) co-cultured with Jurkat T cells (PD-1)
T1 sequence (Q9NZQ7 19-290): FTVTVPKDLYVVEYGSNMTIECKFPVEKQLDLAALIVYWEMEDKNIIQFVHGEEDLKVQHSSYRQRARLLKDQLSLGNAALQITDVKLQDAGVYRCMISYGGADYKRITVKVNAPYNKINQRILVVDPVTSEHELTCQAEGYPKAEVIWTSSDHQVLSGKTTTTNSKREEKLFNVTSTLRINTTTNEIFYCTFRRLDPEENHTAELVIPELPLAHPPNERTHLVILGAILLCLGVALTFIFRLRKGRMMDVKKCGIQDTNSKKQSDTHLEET
Protocol: (§1) B, PD-L1-overexpressing Raji B cells were pre-incubated with a dilution series of α-PD-L1 compounds in the presence of 25 pg/ml SEE for 1 h and then co-cultured in a 1:1 ratio with PD-1-overexpressing Jurkat T cells for 24 h. Supernatants were collected, and IL-2 levels were measured using ELISA. EC50 was calculated using a 4-parameter logistic function in GraphPad Prism 9.0.0. Data are representative of five independent experiments performed in duplicates, with error bars indicating the standard deviation. C, PD-L1-overexpressing Raji B cells were pre-incubated with 2 nM of α-PD-L1 compounds in the presence of 25 pg/ml SEE for 1 h and then co-cultured in a 1:1 ratio with PD-1-overexpressing Jurkat T cells for 18 h. Cells were collected and stained with BV421-conjugated anti-human CD69 antibody. […] Cells were measured with a BD LSRFortessa instrument (Fig. S9). Data are represented as median fluorescence intensity (MFI). Error bars indicate the standard deviation. D, histograms indicate the percentage of CD69-expressing cells (gated above the basal CD69 expression in the absence of SEE; no SEE). Data were analyzed with FlowJo 10.4.1 and are representative of three independent experiments performed in duplicates. MFI comparison was carried out using a one-way ANOVA test in GraphPad Prism 9.0.0. ∗∗ indicates p-value < 0.01; ns = not significant.

[2] = molecular target: T1, PD-1/PD-L1 engagement (hPD-L1-overexpressing Raji B cells, hPD-1-overexpressing Jurkat T cells); experiment: Membrane CD69 expression in PD-L1 Raji B / PD-1 Jurkat T cell co-culture with SEE; type: cell-based; conditions: 2 nM compound, 18 h co-culture; for overall expression of CD69 compared with non-treated samples: MFI, one-way ANOVA; for % CD69 (percentage of CD69-expressing cells): gated above basal CD69 without SEE
Protocol: as §1
Co-culture for analysis of CD69 expression was set up similarly as above, except that cells were incubated for 18 h in the presence of 2 nM of all compounds. Next, cells were collected by centrifugation (600g, 6 min) and washed once with 200 μl PBS. Corresponding wells were stained with 100 μl of 1:100 BV421-anti-human CD69 antibody (BD Biosciences, cat# 562884) or 100 ng/well isotype control antibody (BD Biosciences cat# 562438) in PBS for 30 min at 4 °C. Afterwards, cells were washed three times with 200 μl PBS followed by viability staining using 100 μl of 1:1000 Zombie NIR fixable viability kit (Biolegend, cat# 423106) in PBS. Finally, the measurement was carried out on an LSRFortessa Flow Cytometer (Becton, Dickinson and Company) and analyzed with FlowJo 10.4.1. The cell population was gated based on their forward and side scatter properties, followed by gating for single and viable cells. The Gating strategy is explained in the Fig. S9.

PD-L1 [3] = conditions: read-out: published Kd; cited from earlier work
PD-L1 [4] = tested on: PD-L1; parameters: method as in http://en.atagenix.com/product_detail-23647.html, 30; conditions: indirect ELISA; ref http://en.atagenix.com/product_detail-23647.html, 30; read-out: published EC50, indirect ELISA; cited from earlier work

In the case of “atezolizumab: FDA-approved PD-L1-targeting monoclonal antibody”, the EC50 [1] is reported as 300 pM, the “overall expression of CD69 compared with non-treated samples” value [2] is reported as “substantial increase” and the “% CD69 (percentage of CD69-expressing cells)” value [2] is reported as 33±4%.
For “avelumab: FDA-approved PD-L1-targeting monoclonal antibody”, the Kd (PD-L1 [3]) is given as 40 pM.
For “durvalumab: FDA-approved PD-L1-targeting monoclonal antibody”, the EC50 (PD-L1 [4]) is listed as roughly 320 pM, the EC50 [1] is listed as 600 pM and the “overall expression of CD69 compared with non-treated samples” value [2] is listed as “substantial increase”. The “% CD69 (percentage of CD69-expressing cells)” value [2] was 36±1%.
